Assay results reported in paper PMC5767323, “Differential NtcA Responsiveness to 2-Oxoglutarate Underlies the Diversity of C/N Balance Regulation in Prochlorococcus” (Frontiers in Microbiology, 2018).

What was measured:
NtcA [1] = molecular target: T1, NtcA (Prochlorococcus marinus, UniProt Q7VDU1); experiment: ITC of NtcA-dsDNA at varied 2OG, ternary equilibrium fit; supported by SPR and EMSA; type: binding
T1 construct: recombinant His6-tagged NtcA (pET-15b)
T1 sequence (Q7VDU1 1-244): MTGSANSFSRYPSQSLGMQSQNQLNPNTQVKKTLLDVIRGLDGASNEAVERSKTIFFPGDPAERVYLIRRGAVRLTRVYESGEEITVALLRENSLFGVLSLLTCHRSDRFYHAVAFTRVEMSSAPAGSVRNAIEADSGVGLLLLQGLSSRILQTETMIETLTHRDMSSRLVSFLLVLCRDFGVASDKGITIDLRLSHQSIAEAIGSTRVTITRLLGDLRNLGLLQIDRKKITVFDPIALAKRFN

NtcA [2] = molecular target: T2, NtcA (Prochlorococcus marinus, UniProt Q7TUG3); experiment: ITC of NtcA-dsDNA at varied 2OG, ternary equilibrium fit; type: binding
T2 construct: recombinant His6-tagged NtcA (pET-15b)
T2 sequence (Q7TUG3 1-244): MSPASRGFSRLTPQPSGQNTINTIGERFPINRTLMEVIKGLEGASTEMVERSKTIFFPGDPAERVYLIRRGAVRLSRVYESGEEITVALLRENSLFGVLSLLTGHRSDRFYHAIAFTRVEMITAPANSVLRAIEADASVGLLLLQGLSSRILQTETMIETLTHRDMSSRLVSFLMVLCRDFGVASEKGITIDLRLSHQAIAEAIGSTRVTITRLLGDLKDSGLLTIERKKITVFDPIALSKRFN

NtcA [3] = molecular target: T3, NtcA (Prochlorococcus marinus, UniProt Q7TUN1); experiment: ITC of NtcA-dsDNA at varied 2OG, ternary equilibrium fit; supported by SPR and EMSA; type: binding
T3 construct: recombinant His6-tagged NtcA (pET-15b)
T3 sequence (Q7TUN1 1-222): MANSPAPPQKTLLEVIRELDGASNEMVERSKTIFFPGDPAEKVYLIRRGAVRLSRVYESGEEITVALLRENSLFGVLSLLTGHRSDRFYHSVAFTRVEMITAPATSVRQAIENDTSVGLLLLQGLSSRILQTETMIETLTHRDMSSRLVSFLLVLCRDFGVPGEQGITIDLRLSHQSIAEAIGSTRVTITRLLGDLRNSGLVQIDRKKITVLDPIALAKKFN

[4] = molecular target: T4, NtcA SS120 (Prochlorococcus sp. SS120) (UniProt Q7VDU1); experiment: ITC; details: ITC: 50 mM Hepes, 350 mM NaCl, pH 7.5, 25 C, 0-10 mM 2OG, SPR: Biacore X, CM5 with neutravidin, buffer not given, EMSA: as Napolitano et al. 2012, 1 uM …
T4 sequence: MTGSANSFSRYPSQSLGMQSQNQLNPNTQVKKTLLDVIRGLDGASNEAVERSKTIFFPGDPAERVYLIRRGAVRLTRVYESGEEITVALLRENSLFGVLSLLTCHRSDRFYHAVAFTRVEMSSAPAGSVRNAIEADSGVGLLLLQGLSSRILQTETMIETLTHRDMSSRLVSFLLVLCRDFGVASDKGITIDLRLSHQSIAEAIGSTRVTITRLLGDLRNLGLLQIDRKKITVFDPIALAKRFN

NtcA MIT9313 = molecular target: T5, NtcA MIT9313 (Prochlorococcus sp. MIT9313, UniProt Q7TUN1 1-222); experiment: ITC; saturating 2OG (Kd,eff = Kd/alpha, extrapolated from fit); ITC: 50 mM Hepes, 350 mM NaCl, pH 7.5, 25 C, 0-10 mM 2OG; SPR: Biacore X, CM5 with neutravidin, 25 C, buffer not given; EMSA: as Napolitano et al. 2012, 1 uM NtcA; details: protein: recombinant; tags: His6 (pET-15b); chain copies: 2; blunt
T5 sequence: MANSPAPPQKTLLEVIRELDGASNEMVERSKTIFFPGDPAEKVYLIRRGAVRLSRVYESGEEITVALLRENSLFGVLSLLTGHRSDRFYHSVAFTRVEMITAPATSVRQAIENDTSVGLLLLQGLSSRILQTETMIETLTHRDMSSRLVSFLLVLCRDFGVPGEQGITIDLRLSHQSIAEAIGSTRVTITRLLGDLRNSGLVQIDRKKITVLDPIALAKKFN

NtcA MED4 [5] = molecular target: T6, NtcA MED4 (Prochlorococcus sp. MED4, UniProt Q7TUG3 1-244); experiment: as above; details: protein: recombinant; tags: His6 (pET-15b); chain copies: 2; blunt
T6 sequence: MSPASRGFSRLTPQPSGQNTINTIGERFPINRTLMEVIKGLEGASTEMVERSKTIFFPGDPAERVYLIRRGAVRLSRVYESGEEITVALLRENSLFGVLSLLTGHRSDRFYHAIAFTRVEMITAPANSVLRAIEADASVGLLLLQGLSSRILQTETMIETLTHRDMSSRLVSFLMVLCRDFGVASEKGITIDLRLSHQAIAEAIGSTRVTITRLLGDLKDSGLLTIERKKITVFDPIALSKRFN

NtcA SS120 = molecular target: T7, NtcA SS120 (Prochlorococcus sp. SS120, UniProt Q7VDU1 1-244); experiment: as above; details: protein: recombinant; tags: His6 (pET-15b); chain copies: 2; blunt
T7 sequence: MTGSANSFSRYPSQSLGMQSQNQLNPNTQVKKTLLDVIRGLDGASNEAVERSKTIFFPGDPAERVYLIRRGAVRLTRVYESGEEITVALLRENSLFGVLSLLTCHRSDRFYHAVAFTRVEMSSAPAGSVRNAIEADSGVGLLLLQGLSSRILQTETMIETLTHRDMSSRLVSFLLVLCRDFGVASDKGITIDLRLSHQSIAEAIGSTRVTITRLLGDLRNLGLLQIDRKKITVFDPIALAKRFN

NtcA MED4 [6] = molecular target: T6, NtcA MED4; experiment: ITC; independent of 2OG; ITC: 50 mM Hepes, 350 mM NaCl, pH 7.5, 25 C, 0-10 mM 2OG; SPR: Biacore X, CM5 with neutravidin, 25 C, buffer not given; EMSA: as Napolitano et al. 2012, 1 uM NtcA; details: protein: recombinant; tags: His6 (pET-15b); chain copies: 2; blunt

## O=C(O)CCC(=O)C(=O)O [2OG, 2-oxoglutarate]
NtcA [1]
  Kd: 42000 ± 3000 µM
NtcA [2]
  Kd: 36000 ± 3000 µM
NtcA [3]
  Kd: 19000 ± 2000 µM

## CCAATAAGCCCCACACGGCATTATTG (double strand) [DNA4, glnA promoter SS120 mutated]
[4]
  Kd: 10 µM

B1: DNA1, glnA promoter MIT9313 wt (dsDNA)
DNA 1: TAGAAGGTACCTGTTGCTACAAAAAG
DNA 2: CTTTTTGTAGCAACAGGTACCTTCTA
NtcA MIT9313
  Kd: 0.06 ± 0.01 µM

B2: DNA5, glnA promoter MED4 wt (dsDNA)
DNA 1: AAAAAGTTACCTTTGATACATAAT
DNA 2: ATTATGTATCAAAGGTAACTTTTT
NtcA MED4 [5]
  Kd: 0.5 ± 0.1 µM

B3: DNA3, glnA promoter SS120 wt (dsDNA)
DNA 1: CCAATAGTCACAAAAAGTACTTATTG
DNA 2: CAATAAGTACTTTTTGTGACTATTGG
NtcA SS120
  Kd: 0.8 ± 0.2 µM

B4: DNA6, glnA promoter MED4 mutated (dsDNA)
DNA 1: AAAAACTAACCTTTGACTGATAAT
DNA 2: ATTATCAGTCAAAGGTTAGTTTTT
NtcA MED4 [6]
  Kd: 9.5 ± 0.9 µM
